Measurements reported in paper PMC5986207.

Target: human HER2 extracellular domain, soluble, His-tagged (human)
Assay: AUC; multisignal sedimentation velocity (MSSV), 4:1 molar loading of HER2 to antibody (5.8:1.4 μM), PBS, 20 °C, 42,000 rpm, UV 280 and 250 nm and interference, SEDPHAT

stoichiometry N (HER2 per MEDI4276 (2:1)): 2
stoichiometry N (HER2 per MEDI4276 (5:3)): 1.67
Substance: MEDI4276, anti-HER2 biparatopic, monospecific, tetravalent antibody (trastuzumab scFv on the N terminus of the 39S heavy chain) (bispecific antibody)
